Non-standard residues stand in square brackets, D forms with d. Primed or numbered codes have the meaning given here. No end group written: not given here. Lys(N3)′ = its azide, alkyne or alkene has reacted where a group follows in round brackets; DBCO′ = not defined here; F′ = aminophenylalanine; Ahx = NCCCCCC(=O)O
What was measured:
CD8 T cell responses [1] = test: CD8 T cell response of mice vaccinated with Adpgk peptide antigen conjugates, intracellular cytokine staining for IFN-g; format: in vivo, C57BL/6 mice; details: SC route; vaccinated day 0, 14, 28; whole blood
Procedure: Mice were vaccinated on day 0, 14, and 28. CD8 T cell responses were measured on day 12, 21, and 35 from whole blood using an intracellular cytokine staining assay for IFN-g production;

CD8 T cell responses [2] = test: CD8 T cell response of mice vaccinated with Cpne1 peptide antigen conjugates, intracellular cytokine staining for IFN-g; format: in vivo, C57BL/6 mice; details: SC route; vaccinated day 0, 14, 28; whole blood
Procedure: Mice were vaccinated on day 0, 14, and 28. CD8 T cell responses were measured on day 7, 21, 35, and 42 from whole blood using an intracellular cytokine staining assay for IFN-g production; and
To evaluate the suitability of immunogenic compositions based on peptide antigen fragments comprising aryl amines, mice were either vaccinated with peptide antigen conjugates of formula C-B1-A-B2-L-H, either comprising a charged moiety with positive charge, […] Tyr-Ser-Pro-Val-Cit-Lys(N3-DBCO)-Glu(2B)-Trp-Glu(2B)-Trp-Glu(2B)—NH2 (SEQ ID NO: 76) or a charged moiety with negative charge and a B2 comprised of amino acids bearing aryl amines, i.e., Ac-Glu-Glu-Glu-Glu-Glu-Val-Cit-[…]Try-[…]Cit-Phe(NH2)-Phe(NH2)-Phe(NH2)-Phe(NH2)-Lys(N3-DBCO)-Glu(2B)-Trp-Glu(2B)-Trp-Glu(2B)—NH2 (SEQ ID NO: 42), wherein Phe(NH2) is para-amino-phenylalanine.

[3] = Particle size and stability of amphiphilic carrier molecules by dynamic light scattering; format: physicochemical; details: PBS pH 7.4, 0.5 mg/mL, peptide-based linear carriers
Procedure: This reaction scheme was used to prepare different compositions of amphiphilic carrier molecules that were characterized for the capacity to form stable nanoparticle micelles in aqueous buffer, PBS pH 7.4, at a concentration of 0.5 mg/mL of amphiphilic carrier molecule. The results of these studies are summarized below according to the chemical composition and architecture of the amphiphilic carrier molecule.
A series of linear amphiphilic carriers of formula C-B-L-H, wherein the charged moiety (C) and spacer (B) comprises peptides, i.e., poly(lysine) and poly(serine-co-glycine), respectively, with varying hydrophobic block composition were evaluated for particle size and stability by dynamic light scattering. […]

Row | Substance | Size (diameter, nm) [3] [nm] | also measured
1 | Ac-Glu-Glu-Glu-Glu-Glu-Glu-Glu-Val-Cit-Gly-Ile-Pro-Val-His-Leu-Glu-Leu-Ala-Ser-Met-Thr-Asn-Met-Glu-Leu-Met-Ser-Ser-Ile-Val- His-Gln-Gln-Val-Phe-Pro-Thr-Ser-Pro-Val-Cit-Phe(NH2)-Phe(NH2)-Phe(NH2)-Phe(NH2)-Lys(N3-DBCO)-Glu(2B)-Trp-Glu(2B)-Trp-Glu(2B)—NH2 (EEEEEEEVXGIPVHLELASMTNMELMSSIVHQQVFPTSPVXXXXXX; N-acetyl, citrulline, Phe(NH2), DBCO click, Glu(2B), amide; SITE 1 Wherein Glu is modified with an acetyl group at the N-terminus; SITE 9 citrulline (Cit); SITE 41 citrulline (Cit); SITE 42..45 para-amino-phenylalanine; SITE 46 azido-lysine (Lys(N3))) [SEQ ID NO: 40] |  | CD8 T cell responses (CD8 T cell responses [1]): CD8 T cell responses were induced in all animals
2 | Ac-Glu-Glu-Glu-Glu-Glu-Val-Cit-Asp-Phe-Thr-Gly-Ser-Asn-Gly-Asp-Pro-Ser-Ser-Pro-Try-Ser-Leu-His-Tyr-Leu-Ser-Pro-Thr-Gly-Val-Asn-Glu-Tyr-Ser-Pro-Val-Cit-Phe(NH2)-Phe(NH2)-Phe(NH2)-Phe(NH2)-Lys(N3-DBCO)-Glu(2B)-Trp-Glu(2B)-Trp-Glu(2B)—NH2 (EEEEEVXDFTGSNGDPSSPYSLHYLSPTGVNEYSPVXXXXXX; acetyl, citrulline, DBCO click conjugate, amidated; SITE 1 Wherein Glu is modified with an acetyl group at the N-terminus; SITE 7 citrulline (Cit); SITE 37 citrulline (Cit); SITE 38..41 para-amino-phenylalanine.; SITE 42 azido-lysine (Lys(N3))) [SEQ ID NO: 42, negatively charged Cpne1 peptide antigen conjugate] |  | CD8 T cell responses detected in vaccinated animals (CD8 T cell responses [2]): detected in all vaccinated animals; CD8 T cell responses, tris salts of the negatively charged conjugate (CD8 T cell responses [2]): CD8 T cell responses were induced in all animals
3 | KKK-SGSGSGSGSGSGSGSGSGSGSGSG-(Lys(N3-DBCO))-Ahx-(F′)5: peptide-based linear amphiphilic carrier molecule C-B-L-H (chain 1 KKKSGSGSGSGSGSGSGSGSGSGSGSG[Lys(N3)′](DBCO′)[Ahx]; chain 2 [F′][F′][F′][F′][F′]; also: chain 2 (F′)5 follows Ahx of chain 1) | 1013 | 
4 | KKK-SGSGSGSGSGSGSGSGSGSGSGSG-(Lys(N3-DBCO))-Ahx-(F′)10: peptide-based linear amphiphilic carrier molecule C-B-L-H (chain 1 KKKSGSGSGSGSGSGSGSGSGSGSGSG[Lys(N3)′](DBCO′)[Ahx]; chain 2 [F′][F′][F′][F′][F′][F′][F′][F′][F′][F′]; also: chain 2 (F′)10 follows Ahx of chain 1) | 3839 | 
5 | KKK-SGSGSGSGSGSGSGSGSGSGSGSG-(Lys(N3-DBCO))-Ahx-(F′)20: peptide-based linear amphiphilic carrier molecule C-B-L-H (chain 1 KKKSGSGSGSGSGSGSGSGSGSGSGSG[Lys(N3)′](DBCO′)[Ahx]; chain 2 [F′][F′][F′][F′][F′][F′][F′][F′][F′][F′][F′][F′][F′][F′][F′][F′][F′][F′][F′][F′]; also: chain 2 (F′)20 follows Ahx of chain 1) | 1521 | 
6 | KKK-SGSGSGSGSGSGSGSGSGSGSGSG-(Lys(N3-DBCO))-Bis(Ahx-F′10)2: peptide-based linear amphiphilic carrier molecule C-B-L-H (chain 1 KKKSGSGSGSGSGSGSGSGSGSGSGSG[Lys(N3)′](DBCO′)[Ahx]; chain 2 [F′][F′][F′][F′][F′][F′][F′][F′][F′][F′]; also: two Ahx-F′10 arms, branching not given here, one arm shown) | 2683 | 
7 | KKKKKKK-SGSGSGSGSGSGSGSGSGSGSGSG-(Lys(N3-DBCO))-Ahx-(F′)5: peptide-based linear amphiphilic carrier molecule C-B-L-H | 477 | 
8 | KKKKKKK-SGSGSGSGSGSGSGSGSGSGSGSG-(Lys(N3-DBCO))-Ahx-(F′)20: peptide-based linear amphiphilic carrier molecule C-B-L-H | 32 | 
9 | Lys-Lys-Lys-Lys-Lys-Lys-Lys-Lys-Lys-Val-Arg-Asp-Phe-Thr-Gly-Ser-Asn-Gly-Asp-Pro-Ser-Ser-Pro-Tyr-Ser-Leu-His-Tyr-Leu-Ser-Pro-Thr-Gly-Val-Asn-Glu- Tyr-Ser-Pro-Val-Cit-Lys(N3-DBCO)-Glu(2B)-Trp-Glu(2B)-Trp-Glu(2B)—NH2 (KKKKKKKKKVRDFTGSNGDPSSPYSLHYLSPTGVNEYSPVXX; citrulline, DBCO click conjugate, amidated; SITE 41 citrulline (Cit); SITE 42 azido-lysine (Lys(N3))) [SEQ ID NO: 76, positively charged Cpne1 peptide antigen conjugate] |  | CD8 T cell responses detected in vaccinated animals (CD8 T cell responses [2]): detected in all vaccinated animals
